Assay [1] has as its target spike protein of SARS-CoV-2 strain B.1.351 (SARS-CoV-2) (UniProt P0DTC2). The assay can be described thus: cell-based or functional assay.
In assay [2] the target is SARS-CoV-2 spike receptor binding domain K417T (SARS-CoV-2) (UniProt P0DTC2). Nature of the assay: BLI, RBD on AR2G biosensor, mAb as analyte. Background: BLI is a label-free optical method that tracks binding on a fibre tip over time.
Assay [3] addresses SARS-CoV-2 receptor binding domain with N501Y (SARS-CoV-2) (UniProt P0DTC2). Nature of the assay: BLI, RBD immobilised on AR2G biosensor, 1:1 fit.
Assay [4] concerns the target SARS-CoV-2 spike protein on authentic virus, strain B.1.1.7 (SARS-CoV-2) (UniProt P0DTC2). Nature of the assay: cell-based or functional assay.
For assay [5], the target named is SARS-CoV-2 spike protein on authentic virus, strain SARS-CoV-2/human/AUS/VIC01/2020 (Victoria) (SARS-CoV-2) (UniProt P0DTC2). Nature of the assay: cell-based or functional assay.

In assay [1], AZD1061 (antibody) came in with an IC50 (FRNT, live virus neutralisation) of 0.014 µg/mL. Further, in assay [2], the Kd – broadly, the concentration at which binding is half-saturated – came to 8 nM.

As to “AZD1061 as tested by BLI (Fab by the footnote of Table 12)”, in assay [3], the Kd turned out to be 1.41 nM.

“AZD7442 (a combination of AZD1061 and AZD8895)”: in assay [4], the B.1.1.7/Victoria Ratio of IC50 was determined as 0.77 and the IC50 (ug/ml), FRNT was determined as 0.007 µg/mL. In assay [5], the IC50 (ug/ml), FRNT came out at 0.009 µg/mL.

Substance AZD8895 (antibody) came in with an IC50 (FRNT, live virus neutralisation) in assay [1] of 0.046 µg/mL.

In assay [3], “AZD8895 as tested by BLI (Fab by the footnote of Table 12)” had a Kd of 2.44 nM.

Substance REGN10933 (antibody) came in with an IC50 (FRNT, live virus neutralisation) in assay [1] of 3.28 µg/mL.

“REGN10933 as tested by BLI (Fab by the footnote of Table 12)” displayed a Kd in assay [3] of 2.75 nM.

In the case of REGN10987 (antibody), the IC50 (FRNT, live virus neutralisation) in assay [1] came out at 0.007 µg/mL.

“REGN10987 as tested by BLI (Fab by the footnote of Table 12)” registered a Kd in assay [3] of 3.09 nM.
